From the supplement of paper PMC9112550, “Optimization of the antimicrobial peptide Bac7 by deep mutational scanning” (BMC Biology, 2022)

System: Escherichia coli TOP10
Assay: shrunken log2 fold change of peptide-encoding DNA abundance (4.5 h post-induction vs induction); higher = less antimicrobial activity (less host growth inhibition)
Conditions: time post-induction: 4.5 h; library: site-saturation at positions 5, 18, 19, 20
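Also: peptides expressed intracellularly from a pBAD plasmid library in pooled LB shake-flask culture, induced with 0.3% L-arabinose, DNA abundance read by NGS, three biological replicates, DESeq2 with apeglm shrinkage.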

RRIRWRPPRLPRPRPRPVCTPRP
shrunken log2 fold change: 0.26

RRIRWRPPRLPRPRPRPVDGPRP
shrunken log2 fold change: 0.0816

RRIRWRPPRLPRPRPRPVDSPRP
shrunken log2 fold change: 0.183

RRIRWRPPRLPRPRPRPVDYPRP
shrunken log2 fold change: 0.0136

RRIRWRPPRLPRPRPRPVFAPRP
shrunken log2 fold change: 0.394

RRIRWRPPRLPRPRPRPVFDPRP
shrunken log2 fold change: 0.138

RRIRWRPPRLPRPRPRPVGDPRP
shrunken log2 fold change: 0.33

RRIRWRPPRLPRPRPRPVGQPRP
shrunken log2 fold change: 0.413

RRIRWRPPRLPRPRPRPVKCPRP
shrunken log2 fold change: -0.015

RRIRWRPPRLPRPRPRPVKGPRP
shrunken log2 fold change: -0.0905

RRIRWRPPRLPRPRPRPVKYPRP
shrunken log2 fold change: -0.632

RRIRWRPPRLPRPRPRPVNSPRP
shrunken log2 fold change: 0.0541

RRIRWRPPRLPRPRPRPVRRPRP
shrunken log2 fold change: 0.365

RRIRWRPPRLPRPRPRPVSAPRP
shrunken log2 fold change: 0.316

RRIRWRPPRLPRPRPRPVSFPRP
shrunken log2 fold change: 0.169

RRIRWRPPRLPRPRPRPVSKPRP
shrunken log2 fold change: 0.0519

RRIRWRPPRLPRPRPRPVTHPRP
shrunken log2 fold change: -0.0273

RRIRWRPPRLPRPRPRPVTVPRP
shrunken log2 fold change: -0.194

RRIRWRPPRLPRPRPRPVVAPRP
shrunken log2 fold change: 0.28

RRIRWRPPRLPRPRPRPVVQPRP
shrunken log2 fold change: -0.131

RRIRWRPPRLPRPRPRPVWSPRP
shrunken log2 fold change: 0.163

RRIRWRPPRLPRPRPRPVYEPRP
shrunken log2 fold change: -0.00561

RRIRWRPPRLPRPRPRPVYGPRP
shrunken log2 fold change: -0.083

RRIRWRPPRLPRPRPRPVYIPRP
shrunken log2 fold change: -0.0308

RRIRWRPPRLPRPRPRPWCPPRP
shrunken log2 fold change: 0.0505

RRIRWRPPRLPRPRPRPWESPRP
shrunken log2 fold change: -0.0449

RRIRWRPPRLPRPRPRPWETPRP
shrunken log2 fold change: -0.01

RRIRWRPPRLPRPRPRPWKYPRP
shrunken log2 fold change: -0.679

RRIRWRPPRLPRPRPRPWLHPRP
shrunken log2 fold change: -0.0248

RRIRWRPPRLPRPRPRPWLPPRP
shrunken log2 fold change: -0.188

RRIRWRPPRLPRPRPRPWLVPRP
shrunken log2 fold change: -0.237

RRIRWRPPRLPRPRPRPWNQPRP
shrunken log2 fold change: -0.067

RRIRWRPPRLPRPRPRPWPMPRP
shrunken log2 fold change: -0.0421

RRIRWRPPRLPRPRPRPWPRPRP
shrunken log2 fold change: 0.223

RRIRWRPPRLPRPRPRPWPWPRP
shrunken log2 fold change: -0.0737

RRIRWRPPRLPRPRPRPWQVPRP
shrunken log2 fold change: 0.172

RRIRWRPPRLPRPRPRPWRGPRP
shrunken log2 fold change: 0.389

RRIRWRPPRLPRPRPRPWRKPRP
shrunken log2 fold change: -0.139

RRIRWRPPRLPRPRPRPWRWPRP
shrunken log2 fold change: 0.0969

RRIRWRPPRLPRPRPRPWSEPRP
shrunken log2 fold change: -0.206

RRIRWRPPRLPRPRPRPWSGPRP
shrunken log2 fold change: 0.076

RRIRWRPPRLPRPRPRPWSTPRP
shrunken log2 fold change: 0.374

RRIRWRPPRLPRPRPRPWTFPRP
shrunken log2 fold change: -0.146

RRIRWRPPRLPRPRPRPWTGPRP
shrunken log2 fold change: -0.0518

RRIRWRPPRLPRPRPRPWTYPRP
shrunken log2 fold change: -0.0122

RRIRWRPPRLPRPRPRPWVPPRP
shrunken log2 fold change: 0.00582

RRIRWRPPRLPRPRPRPWWKPRP
shrunken log2 fold change: -0.00743

RRIRWRPPRLPRPRPRPWWSPRP
shrunken log2 fold change: 0.173

RRIRWRPPRLPRPRPRPWYRPRP
shrunken log2 fold change: -0.174

RRIRWRPPRLPRPRPRPYAEPRP
shrunken log2 fold change: 0.258

RRIRWRPPRLPRPRPRPYAKPRP
shrunken log2 fold change: -0.41

RRIRWRPPRLPRPRPRPYCPPRP
shrunken log2 fold change: -0.441

RRIRWRPPRLPRPRPRPYCYPRP
shrunken log2 fold change: -0.562

RRIRWRPPRLPRPRPRPYDAPRP
shrunken log2 fold change: -0.189

RRIRWRPPRLPRPRPRPYDEPRP
shrunken log2 fold change: -0.114

RRIRWRPPRLPRPRPRPYFFPRP
shrunken log2 fold change: -0.245

RRIRWRPPRLPRPRPRPYFGPRP
shrunken log2 fold change: -0.168

RRIRWRPPRLPRPRPRPYFNPRP
shrunken log2 fold change: -1.06

RRIRWRPPRLPRPRPRPYGCPRP
shrunken log2 fold change: -0.189

RRIRWRPPRLPRPRPRPYGLPRP
shrunken log2 fold change: -0.23

RRIRWRPPRLPRPRPRPYIDPRP
shrunken log2 fold change: -0.23

RRIRWRPPRLPRPRPRPYISPRP
shrunken log2 fold change: -0.816

RRIRWRPPRLPRPRPRPYLCPRP
shrunken log2 fold change: -0.447

RRIRWRPPRLPRPRPRPYMIPRP
shrunken log2 fold change: -1.02

RRIRWRPPRLPRPRPRPYMYPRP
shrunken log2 fold change: -0.848

RRIRWRPPRLPRPRPRPYNDPRP
shrunken log2 fold change: -0.194

RRIRWRPPRLPRPRPRPYPMPRP
shrunken log2 fold change: -0.128

RRIRWRPPRLPRPRPRPYQGPRP
shrunken log2 fold change: -0.0161

RRIRWRPPRLPRPRPRPYTCPRP
shrunken log2 fold change: -1.7

RRIRWRPPRLPRPRPRPYTMPRP
shrunken log2 fold change: -0.335

RRIRWRPPRLPRPRPRPYTPPRP
shrunken log2 fold change: -0.72

RRIRWRPPRLPRPRPRPYTTPRP
shrunken log2 fold change: -0.537

RRIRWRPPRLPRPRPRPYVCPRP
shrunken log2 fold change: -0.00902

RRIRWRPPRLPRPRPRPYWDPRP
shrunken log2 fold change: -0.415

RRIRWRPPRLPRPRPRPYYMPRP
shrunken log2 fold change: -0.258

RRIRWRPPRLPRPRPRPYYWPRP
shrunken log2 fold change: -1.31

RRIRYRPPRLPRPRPRPADIPRP
shrunken log2 fold change: -0.0376

RRIRYRPPRLPRPRPRPADKPRP
shrunken log2 fold change: -0.419

RRIRYRPPRLPRPRPRPAFAPRP
shrunken log2 fold change: -0.0121

RRIRYRPPRLPRPRPRPAFYPRP
shrunken log2 fold change: -0.513

RRIRYRPPRLPRPRPRPAGMPRP
shrunken log2 fold change: -0.0428

RRIRYRPPRLPRPRPRPAGNPRP
shrunken log2 fold change: -0.601

RRIRYRPPRLPRPRPRPAGVPRP
shrunken log2 fold change: 0.0619

RRIRYRPPRLPRPRPRPAGWPRP
shrunken log2 fold change: 0.366

RRIRYRPPRLPRPRPRPAHRPRP
shrunken log2 fold change: 0.0479

RRIRYRPPRLPRPRPRPAHTPRP
shrunken log2 fold change: -0.113

RRIRYRPPRLPRPRPRPAIDPRP
shrunken log2 fold change: -0.0997

RRIRYRPPRLPRPRPRPAIMPRP
shrunken log2 fold change: -0.196

RRIRYRPPRLPRPRPRPAINPRP
shrunken log2 fold change: -0.051

RRIRYRPPRLPRPRPRPAKFPRP
shrunken log2 fold change: -0.331

RRIRYRPPRLPRPRPRPAKWPRP
shrunken log2 fold change: 0.0339

RRIRYRPPRLPRPRPRPAMSPRP
shrunken log2 fold change: -0.0191

RRIRYRPPRLPRPRPRPANIPRP
shrunken log2 fold change: -0.0107

RRIRYRPPRLPRPRPRPANQPRP
shrunken log2 fold change: -0.131

RRIRYRPPRLPRPRPRPAPPPRP
shrunken log2 fold change: 0.417

RRIRYRPPRLPRPRPRPAPQPRP
shrunken log2 fold change: 0.416

RRIRYRPPRLPRPRPRPAPWPRP
shrunken log2 fold change: -0.0627

RRIRYRPPRLPRPRPRPAQFPRP
shrunken log2 fold change: 0.0198

RRIRYRPPRLPRPRPRPAQQPRP
shrunken log2 fold change: 0.0788

RRIRYRPPRLPRPRPRPAQVPRP
shrunken log2 fold change: -0.0734

RRIRYRPPRLPRPRPRPARMPRP
shrunken log2 fold change: -0.0508

RRIRYRPPRLPRPRPRPASMPRP
shrunken log2 fold change: 0.0167

RRIRYRPPRLPRPRPRPASTPRP
shrunken log2 fold change: -0.0914

RRIRYRPPRLPRPRPRPATMPRP
shrunken log2 fold change: -0.69

RRIRYRPPRLPRPRPRPAVLPRP
shrunken log2 fold change: 0.0447

RRIRYRPPRLPRPRPRPAVNPRP
shrunken log2 fold change: 0.063

RRIRYRPPRLPRPRPRPAYDPRP
shrunken log2 fold change: -0.236

RRIRYRPPRLPRPRPRPAYEPRP
shrunken log2 fold change: -0.184

RRIRYRPPRLPRPRPRPCADPRP
shrunken log2 fold change: -0.21

RRIRYRPPRLPRPRPRPCARPRP
shrunken log2 fold change: -0.0708

RRIRYRPPRLPRPRPRPCCAPRP
shrunken log2 fold change: -0.437

RRIRYRPPRLPRPRPRPCCDPRP
shrunken log2 fold change: -0.479

RRIRYRPPRLPRPRPRPCCVPRP
shrunken log2 fold change: -0.422

RRIRYRPPRLPRPRPRPCFIPRP
shrunken log2 fold change: -0.321

RRIRYRPPRLPRPRPRPCHNPRP
shrunken log2 fold change: -1.52

RRIRYRPPRLPRPRPRPCIKPRP
shrunken log2 fold change: 1.75

RRIRYRPPRLPRPRPRPCKPPRP
shrunken log2 fold change: -0.00151

RRIRYRPPRLPRPRPRPCKQPRP
shrunken log2 fold change: 0.00515

RRIRYRPPRLPRPRPRPCMCPRP
shrunken log2 fold change: -0.516

RRIRYRPPRLPRPRPRPCMLPRP
shrunken log2 fold change: -1.02

RRIRYRPPRLPRPRPRPCNMPRP
shrunken log2 fold change: -0.873

RRIRYRPPRLPRPRPRPCPQPRP
shrunken log2 fold change: -0.0849

RRIRYRPPRLPRPRPRPCSKPRP
shrunken log2 fold change: -0.012

RRIRYRPPRLPRPRPRPCTAPRP
shrunken log2 fold change: -1.4

RRIRYRPPRLPRPRPRPCVHPRP
shrunken log2 fold change: -0.0274

RRIRYRPPRLPRPRPRPCWDPRP
shrunken log2 fold change: -0.0738

RRIRYRPPRLPRPRPRPCWGPRP
shrunken log2 fold change: -0.204

RRIRYRPPRLPRPRPRPDCQPRP
shrunken log2 fold change: -0.0127

RRIRYRPPRLPRPRPRPDDHPRP
shrunken log2 fold change: -0.264

RRIRYRPPRLPRPRPRPDEKPRP
shrunken log2 fold change: -0.102

RRIRYRPPRLPRPRPRPDGDPRP
shrunken log2 fold change: 0.00902

RRIRYRPPRLPRPRPRPDGVPRP
shrunken log2 fold change: -0.0741

RRIRYRPPRLPRPRPRPDISPRP
shrunken log2 fold change: -0.415

RRIRYRPPRLPRPRPRPDITPRP
shrunken log2 fold change: -0.385

RRIRYRPPRLPRPRPRPDIWPRP
shrunken log2 fold change: -0.00585

RRIRYRPPRLPRPRPRPDKMPRP
shrunken log2 fold change: -0.0477

RRIRYRPPRLPRPRPRPDKRPRP
shrunken log2 fold change: -0.168

RRIRYRPPRLPRPRPRPDLKPRP
shrunken log2 fold change: -0.21

RRIRYRPPRLPRPRPRPDMLPRP
shrunken log2 fold change: -0.0808

RRIRYRPPRLPRPRPRPDPEPRP
shrunken log2 fold change: -0.345

RRIRYRPPRLPRPRPRPDPQPRP
shrunken log2 fold change: -0.0137

RRIRYRPPRLPRPRPRPDQSPRP
shrunken log2 fold change: -0.0117

RRIRYRPPRLPRPRPRPDVSPRP
shrunken log2 fold change: -0.248

RRIRYRPPRLPRPRPRPDWWPRP
shrunken log2 fold change: 0.0124

RRIRYRPPRLPRPRPRPDYDPRP
shrunken log2 fold change: -0.476

RRIRYRPPRLPRPRPRPDYMPRP
shrunken log2 fold change: -0.761

RRIRYRPPRLPRPRPRPEAAPRP
shrunken log2 fold change: 0.319

RRIRYRPPRLPRPRPRPEAKPRP
shrunken log2 fold change: -0.109

RRIRYRPPRLPRPRPRPECCPRP
shrunken log2 fold change: -0.0698

RRIRYRPPRLPRPRPRPECVPRP
shrunken log2 fold change: -0.282
